Test results published in patent US20120027722A1 (MEDICAL RESEARCH COUNCIL, published 2012).
Substitutions are numbered along the chain they refer to. Numbers in names are those of the source. Read-outs that look alike come from different tables or passages of the source. No end group written: not given here.

Legend:
Peptide D3 [1] = biological target: T1, Peptide D3; experiment: peptide ELISA: biotinylated peptide on streptavidin plate, COS7 supernatant, anti-human kappa HRP, OD 655 nm
T1 construct: member of the group m28

E2 peptide C2 [2] = biological target: T2, E2 peptide C2 (Hepatitis C virus, genotype 1a (Table 5), not fully specified (residue 16, C-terminus)); experiment: as above
T2 peptide: QLINTNGSWHVNGSGK

AP33 mimotope peptide H6 [3] = biological target: T3, AP33 mimotope peptide H6; experiment: as above
T3 construct: captured on streptavidin plates; also called mimotope H6; H6 peptide
T3 peptide: VELRNLGGTWRPGSGK-biotin

E2 peptide B1 [4] = biological target: T4, E2 peptide B1 (Hepatitis C virus, genotype 2b (Table 5)); experiment: as above
AP33 mimotope peptide H6 [5] = biological target: T3, AP33 mimotope peptide H6; experiment: as above
Peptide D3 [6] = biological target: T1, Peptide D3; experiment: as above; remark: listed apart in the source
AP33 mimotope peptide H6 [7] = biological target: T3, AP33 mimotope peptide H6; experiment: as above
E2 peptide B1 [8] = biological target: T4, E2 peptide B1; experiment: as above; remark: listed apart in the source
AP33 mimotope peptide H6 [9] = biological target: T3, AP33 mimotope peptide H6; experiment: as above
[10] = biological target: HCV E1E2 glycoproteins, genotype 3a isolate F4/2-35 (on HCVpp) (Hepatitis C virus genotype 3a (F4/2-35)); experiment: cell-based or functional assay
[11] = biological target: HCV E1E2 glycoproteins, isolate 4.21.16 (on HCVpp) (Hepatitis C virus genotype 4 (4.21.16)); experiment: cell-based or functional assay
[12] = biological target: HCV E1E2 glycoproteins, isolate 2A2.4 (on HCVpp) (Hepatitis C virus genotype 2 (2A2.4)); experiment: cell-based or functional assay
[13] = biological target: HCV E1E2 glycoproteins, isolate 6.5.8 (on HCVpp) (Hepatitis C virus genotype 6 (6.5.8)); experiment: cell-based or functional assay
[14] = biological target: HCV E1E2 glycoproteins, genotype 2a isolate JFH1 (on HCVpp) (Hepatitis C virus genotype 2a (JFH1), UniProt Q99IB8 192-383; Q99IB8 384-750); experiment: cell-based or functional assay
Peptide D3 [15] = biological target: T1, Peptide D3; experiment: peptide ELISA: biotinylated peptide on streptavidin plate, COS7 supernatant, anti-human kappa HRP, OD 655 nm; remark: listed apart in the source
AP33 mimotope peptide H6 [16] = biological target: T3, AP33 mimotope peptide H6; experiment: as above
E2 peptide B1 [17] = biological target: T4, E2 peptide B1; experiment: as above; remark: listed apart in the source
AP33 mimotope peptide H6 [18] = biological target: T3, AP33 mimotope peptide H6; experiment: as above
[19] = biological target: HCV E1E2 glycoproteins, isolate 1B5.23 (on HCVpp) (Hepatitis C virus genotype 1 (1B5.23)); experiment: cell-based or functional assay
[20] = biological target: HCV E1E2 glycoproteins, isolate 5.15.11 (on HCVpp) (Hepatitis C virus genotype 5 (5.15.11)); experiment: cell-based or functional assay
[21] = biological target: HCV E1E2 glycoproteins, isolate 1A20.8 (on HCVpp) (Hepatitis C virus genotype 1 (1A20.8)); experiment: cell-based or functional assay
[22] = biological target: HCV E1E2 glycoproteins, isolate 2B1.1 (on HCVpp) (Hepatitis C virus genotype 2 (2B1.1)); experiment: cell-based or functional assay
E2 peptide C2 [23] = biological target: T2, E2 peptide C2; experiment: peptide ELISA: biotinylated peptide on streptavidin plate, COS7 supernatant, normalised as percentage of H6 binding
Peptide D3 [24] = biological target: T1, Peptide D3
E2 peptide B1 [25] = biological target: T4, E2 peptide B1; experiment: peptide ELISA, COS7 supernatants, normalized to H6 binding

B1: AP33 RH-D/RK2bc (antibody, V domains shown)
VH: QVQLQESGPGLVKPSETLSLTCTVSGDSITSGYWNWIRQPPGRALEYIGYISYSGSTYYNLSLRSRITISRDTSKNQYSLRLSSVTAADTAMYYCALITTTTYAMDYWGQGTTVTVS
VL: EIVLTQSPSSLSASVGDRVTITCRASESVDGYGNSFLHWFQQKPGKAPKLLIYLASNLNSGVPSRFSGSGSRTDFTLTISSLQPEDFATYYCQQNNVDPWTFGQGTKLEIK
notes: COS7 supernatant
Peptide D3 [1]
  EC50 (read off the curve): ~0.04 mg/L
E2 peptide C2 [2]
  binding result: binds
AP33 mimotope peptide H6 [3]
  EC50 (read off the curve): ~0.04 mg/L
E2 peptide B1 [4]
  binding result: no binding (tested: about 950 ng/ml)

B2: Vh/RK2bc (antibody, V domains shown)
VH: EVQLQESGPSLVKPSQTLSLTCSVTGDSITSGYWNWIRKFPGNKLEYMGYISYSGSTYYNLSLRSRISITRDTSKNQYYLQLNSVTTEDTATYYCALITTTTYAMDYWGQGTSVTVS
VL: B1 VL
notes: COS7 supernatant; also called chimeric AP33 heavy chain Vh with humanized light chain RK2bc
AP33 mimotope peptide H6 [5]
  binding result: binds

B3: humanized AP33 antibody RHA/RK2bc (antibody, V domains shown)
VH: B1 VH with T30S, Y47W, I67V, R71V, Y78F, L97R
VL: B1 VL
notes: Human IgG1/kappa from vectors pG1D200 and pKN100, COS7 expression; also called AP33RHA/RK2bc
AP33 mimotope peptide H6 [5]
  binding result: binds

B4: humanized AP33 antibody RH-G/RK2bc (antibody, V domains shown)
VH: B1 VH with I48M, Y78F
VL: B1 VL
Peptide D3 [6]
  binding result: binds
AP33 mimotope peptide H6 [7]
  binding result: binds
E2 peptide B1 [8]
  binding result: no binding (tested: about 750 ng/ml)

B5: humanized AP33 antibody RHb-h/RK2b (antibody, V domains shown)
VH: B1 VH with I48M
VL: B1 VL with R72G
AP33 mimotope peptide H6 [9]
  EC50 (read off the curve): ~0.04 mg/L
[10]
  IC50 of HCVpp infection (Huh-7, luciferase): 1.15 mg/L
  IC90 of HCVpp infection (Huh-7, luciferase): 8.3 mg/L
[11]
  IC50 of HCVpp infection (Huh-7, luciferase): 0.33 mg/L
  IC90 of HCVpp infection (Huh-7, luciferase): 3.64 mg/L
[12]
  IC50 of HCVpp infection (Huh-7, luciferase): 1.7 mg/L
  IC90 of HCVpp infection (Huh-7, luciferase): 20 mg/L
[13]
  IC50 of HCVpp infection (Huh-7, luciferase): < 0.41 mg/L
  IC90 of HCVpp infection (Huh-7, luciferase): 3.7 mg/L
[14]
  IC50 of HCVpp infection (Huh-7, luciferase): 2.7 mg/L
  IC90 of HCVpp infection (Huh-7, luciferase): 22.1 mg/L

B6: AP33 RH-E/RK2bc (antibody, V domains shown)
VH: B1 VH with I48M, I67V
VL: B1 VL
notes: COS7 supernatant
Peptide D3 [15]
  binding result: binds
AP33 mimotope peptide H6 [16]
  binding result: binds
E2 peptide B1 [17]
  binding result: no binding (tested: about 800 ng/ml)

B7: humanized AP33 antibody RHI/RK2bc (antibody, V domains shown)
VH: B1 VH with Q39K, I48M
VL: B1 VL
notes: RHI is RHb-h with Q39K; Human IgG1/kappa from vectors pG1D200 and pKN100, COS7 expression; also called RHI (Q39K)/RK2bc
AP33 mimotope peptide H6 [18]
  binding result: binds

B8: RHA/Vl (humanized heavy chain RHA with chimeric light chain) (antibody, V domains shown)
VH: B1 VH with T30S, Y47W, I67V, R71V, Y78F, L97R
VL: NIVLTQSPVSLAVSLGQRATISCRASESVDGYGNSFLHWFQQKPGQPPKLLIYLASNLNSGVPARFSGSGSRTDFTLTIDPVEADDAATYYCQQNNVDPWTFGGGTKLEIK
notes: Human IgG1/kappa from vectors pG1D200 and pKN100, COS7 expression
AP33 mimotope peptide H6 [5]
  binding result: binds

B9: RHI/Vl (humanized heavy chain RHI with chimeric light chain) (antibody, V domains shown)
VH: B1 VH with Q39K, I48M
VL: B8 VL
notes: as for B8
AP33 mimotope peptide H6 [18]
  binding result: binds

B10: chimeric AP33 antibody (Vh/Vl) (antibody, V domains shown)
VH: B2 VH
VL: B8 VL
notes: also called Vh/V1; chimeric antibody
[19]
  IC50 of HCVpp infection (Huh-7, luciferase): 1.15 mg/L
  IC90 of HCVpp infection (Huh-7, luciferase): 11 mg/L
[10]
  IC50 of HCVpp infection (Huh-7, luciferase): 0.48 mg/L
  IC90 of HCVpp infection (Huh-7, luciferase): 3.2 mg/L
[20]
  IC50 of HCVpp infection (Huh-7, luciferase): 0.088 mg/L
  IC90 of HCVpp infection (Huh-7, luciferase): 1.11 mg/L
[11]
  IC50 of HCVpp infection (Huh-7, luciferase): < 0.137 mg/L
  IC90 of HCVpp infection (Huh-7, luciferase): 0.83 mg/L
[21]
  IC50 of HCVpp infection (Huh-7, luciferase): 1.1 mg/L
  IC90 of HCVpp infection (Huh-7, luciferase): 11.5 mg/L
[12]
  IC50 of HCVpp infection (Huh-7, luciferase): 0.88 mg/L
  IC90 of HCVpp infection (Huh-7, luciferase): 6.67 mg/L
[22]
  IC50 of HCVpp infection (Huh-7, luciferase): 3 mg/L
  IC90 of HCVpp infection (Huh-7, luciferase): > 15 mg/L
[13]
  IC50 of HCVpp infection (Huh-7, luciferase): < 0.137 mg/L
  IC90 of HCVpp infection (Huh-7, luciferase): 3.7 mg/L
[14]
  IC50 of HCVpp infection (Huh-7, luciferase): 1.1 mg/L
  IC90 of HCVpp infection (Huh-7, luciferase): 9.31 mg/L
AP33 mimotope peptide H6 [5]
  binding result: binds
E2 peptide C2 [23]
  binding result: binds

B11: chimeric AP33 heavy chain mutant Y47F with chimeric light chain Vl (antibody, V domains shown)
VH: B2 VH with Y47F
VL: B8 VL
notes: also called AP33 Y47F
Peptide D3 [24]
  EC50 (read off the curve): ~0.02 mg/L
E2 peptide C2 [23]
  binding result: binds
E2 peptide B1 [25]
  binding result: binds

B12: chimeric AP33 heavy chain mutant Y47W with chimeric light chain Vl (antibody, V domains shown)
VH: B2 VH with Y47W
VL: B8 VL
notes: also called AP33 Y47W
Peptide D3 [24]
  EC50 (read off the curve): ~0.03 mg/L
E2 peptide C2 [23]
  binding result: binds
E2 peptide B1 [25]
  binding result: binds
